Usually IC50 stands for the concentration at which inhibition is half-maximal. Broadly, the % inhibition is the change of the read-out against control, counted positive when it falls.

The values below come from patent US20120244164A1.

Experiment [1] addresses Human c-Met (human) (UniProt P08581). Description: cell-based or functional assay.
The target of experiment [2] is recombinant human c-Met/Fc chimera (R&D systems) (human). Kind of experiment: HGF/c-Met competition Alphascreen, in absence of HSA. (In general: Bead proximity is the source of the signal in Alpha formats.)
Sequence of recombinant human c-Met/Fc chimera (R&D systems) (human) (chain, as listed by the source mutant limits assumed): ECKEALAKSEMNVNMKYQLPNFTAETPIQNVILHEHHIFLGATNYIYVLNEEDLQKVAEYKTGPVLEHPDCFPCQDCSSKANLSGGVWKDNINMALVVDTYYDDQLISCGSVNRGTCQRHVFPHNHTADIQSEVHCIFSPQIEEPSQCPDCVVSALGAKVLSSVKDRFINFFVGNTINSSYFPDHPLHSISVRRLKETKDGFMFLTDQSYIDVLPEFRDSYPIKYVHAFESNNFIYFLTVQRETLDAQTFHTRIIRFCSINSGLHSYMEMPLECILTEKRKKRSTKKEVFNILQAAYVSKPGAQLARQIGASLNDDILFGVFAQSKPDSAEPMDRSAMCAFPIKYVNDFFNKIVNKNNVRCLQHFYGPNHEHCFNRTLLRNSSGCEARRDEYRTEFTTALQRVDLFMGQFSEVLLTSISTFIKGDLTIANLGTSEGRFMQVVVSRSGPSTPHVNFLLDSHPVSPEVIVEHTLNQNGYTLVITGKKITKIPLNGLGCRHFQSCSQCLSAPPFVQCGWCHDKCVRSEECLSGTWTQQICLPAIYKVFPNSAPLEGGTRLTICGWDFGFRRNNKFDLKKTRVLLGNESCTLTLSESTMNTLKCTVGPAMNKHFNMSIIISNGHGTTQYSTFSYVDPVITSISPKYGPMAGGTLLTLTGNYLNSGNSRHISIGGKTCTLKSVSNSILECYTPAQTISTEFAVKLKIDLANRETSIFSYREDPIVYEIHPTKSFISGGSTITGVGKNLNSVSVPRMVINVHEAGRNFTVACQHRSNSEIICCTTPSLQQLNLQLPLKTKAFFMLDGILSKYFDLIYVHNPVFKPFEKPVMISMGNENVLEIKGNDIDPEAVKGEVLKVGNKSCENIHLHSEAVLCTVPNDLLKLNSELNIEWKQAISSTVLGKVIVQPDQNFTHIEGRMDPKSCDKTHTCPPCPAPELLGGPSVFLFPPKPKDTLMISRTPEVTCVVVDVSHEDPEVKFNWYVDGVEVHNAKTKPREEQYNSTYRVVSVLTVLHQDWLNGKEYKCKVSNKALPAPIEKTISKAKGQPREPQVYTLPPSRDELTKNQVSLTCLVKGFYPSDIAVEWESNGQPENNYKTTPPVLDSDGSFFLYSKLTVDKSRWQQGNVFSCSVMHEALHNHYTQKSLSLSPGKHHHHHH
For experiment [3] the target is unchanged. Kind of experiment: HGF/c-Met competition Alphascreen, in presence of 5 uM HSA.
The target in experiment [4] is Human c-Met (human) (UniProt P08581). Description: competition flow cytometry: 1 nM biotinylated hHGF on A549 cells.
Sequence of Human c-Met (human) (P08581 25-1390 limits assumed): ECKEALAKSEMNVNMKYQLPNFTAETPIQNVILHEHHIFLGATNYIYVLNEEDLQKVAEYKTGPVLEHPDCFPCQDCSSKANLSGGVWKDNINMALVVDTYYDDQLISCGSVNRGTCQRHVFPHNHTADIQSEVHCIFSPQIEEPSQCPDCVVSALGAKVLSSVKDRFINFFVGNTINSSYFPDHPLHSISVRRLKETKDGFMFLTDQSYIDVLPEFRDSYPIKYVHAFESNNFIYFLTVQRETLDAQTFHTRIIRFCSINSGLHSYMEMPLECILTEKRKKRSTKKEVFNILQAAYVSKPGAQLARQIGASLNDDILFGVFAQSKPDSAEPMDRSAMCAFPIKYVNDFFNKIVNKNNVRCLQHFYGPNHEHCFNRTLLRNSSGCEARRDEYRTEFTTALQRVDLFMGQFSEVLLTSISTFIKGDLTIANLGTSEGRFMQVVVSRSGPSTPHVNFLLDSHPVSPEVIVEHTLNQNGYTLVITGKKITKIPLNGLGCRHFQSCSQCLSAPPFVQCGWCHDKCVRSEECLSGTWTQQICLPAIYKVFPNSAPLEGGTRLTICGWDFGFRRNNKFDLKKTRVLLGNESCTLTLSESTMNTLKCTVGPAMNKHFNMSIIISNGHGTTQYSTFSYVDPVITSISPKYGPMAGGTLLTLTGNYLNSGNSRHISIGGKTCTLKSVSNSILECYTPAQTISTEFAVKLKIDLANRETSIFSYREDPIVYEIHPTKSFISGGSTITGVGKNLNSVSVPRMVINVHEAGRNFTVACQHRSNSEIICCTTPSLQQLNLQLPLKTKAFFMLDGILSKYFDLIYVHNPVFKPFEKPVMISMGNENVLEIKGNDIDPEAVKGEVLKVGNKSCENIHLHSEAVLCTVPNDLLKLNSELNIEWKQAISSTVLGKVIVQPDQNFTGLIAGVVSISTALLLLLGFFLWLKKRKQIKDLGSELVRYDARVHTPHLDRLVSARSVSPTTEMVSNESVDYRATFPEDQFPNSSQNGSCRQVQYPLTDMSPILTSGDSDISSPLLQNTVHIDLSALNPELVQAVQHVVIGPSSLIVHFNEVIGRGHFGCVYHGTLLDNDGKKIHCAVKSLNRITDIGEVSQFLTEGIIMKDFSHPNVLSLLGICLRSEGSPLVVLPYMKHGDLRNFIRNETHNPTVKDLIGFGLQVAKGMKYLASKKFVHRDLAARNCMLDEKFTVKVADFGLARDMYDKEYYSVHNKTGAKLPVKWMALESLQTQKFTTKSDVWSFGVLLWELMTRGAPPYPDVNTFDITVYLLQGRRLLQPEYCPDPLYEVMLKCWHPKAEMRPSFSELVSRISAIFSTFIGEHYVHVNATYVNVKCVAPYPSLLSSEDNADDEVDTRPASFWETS
In experiment [5] the target is recombinant human c-Met/Fc chimera (R&D systems) (human). Kind of experiment: HGF/c-Met competition Alphascreen: biotinylated hHGF, human c-Met/Fc.
The target in experiment [6] is cynomolgus c-Met (cynomolgus monkey). Description: competition FACS: 0.5 nM biotinylated HGF on BAF3 cells with cynomolgus c-Met.
Sequence of cynomolgus c-Met (cynomolgus monkey) (A0M8R7 25-1381 S170N/I621T limits assumed): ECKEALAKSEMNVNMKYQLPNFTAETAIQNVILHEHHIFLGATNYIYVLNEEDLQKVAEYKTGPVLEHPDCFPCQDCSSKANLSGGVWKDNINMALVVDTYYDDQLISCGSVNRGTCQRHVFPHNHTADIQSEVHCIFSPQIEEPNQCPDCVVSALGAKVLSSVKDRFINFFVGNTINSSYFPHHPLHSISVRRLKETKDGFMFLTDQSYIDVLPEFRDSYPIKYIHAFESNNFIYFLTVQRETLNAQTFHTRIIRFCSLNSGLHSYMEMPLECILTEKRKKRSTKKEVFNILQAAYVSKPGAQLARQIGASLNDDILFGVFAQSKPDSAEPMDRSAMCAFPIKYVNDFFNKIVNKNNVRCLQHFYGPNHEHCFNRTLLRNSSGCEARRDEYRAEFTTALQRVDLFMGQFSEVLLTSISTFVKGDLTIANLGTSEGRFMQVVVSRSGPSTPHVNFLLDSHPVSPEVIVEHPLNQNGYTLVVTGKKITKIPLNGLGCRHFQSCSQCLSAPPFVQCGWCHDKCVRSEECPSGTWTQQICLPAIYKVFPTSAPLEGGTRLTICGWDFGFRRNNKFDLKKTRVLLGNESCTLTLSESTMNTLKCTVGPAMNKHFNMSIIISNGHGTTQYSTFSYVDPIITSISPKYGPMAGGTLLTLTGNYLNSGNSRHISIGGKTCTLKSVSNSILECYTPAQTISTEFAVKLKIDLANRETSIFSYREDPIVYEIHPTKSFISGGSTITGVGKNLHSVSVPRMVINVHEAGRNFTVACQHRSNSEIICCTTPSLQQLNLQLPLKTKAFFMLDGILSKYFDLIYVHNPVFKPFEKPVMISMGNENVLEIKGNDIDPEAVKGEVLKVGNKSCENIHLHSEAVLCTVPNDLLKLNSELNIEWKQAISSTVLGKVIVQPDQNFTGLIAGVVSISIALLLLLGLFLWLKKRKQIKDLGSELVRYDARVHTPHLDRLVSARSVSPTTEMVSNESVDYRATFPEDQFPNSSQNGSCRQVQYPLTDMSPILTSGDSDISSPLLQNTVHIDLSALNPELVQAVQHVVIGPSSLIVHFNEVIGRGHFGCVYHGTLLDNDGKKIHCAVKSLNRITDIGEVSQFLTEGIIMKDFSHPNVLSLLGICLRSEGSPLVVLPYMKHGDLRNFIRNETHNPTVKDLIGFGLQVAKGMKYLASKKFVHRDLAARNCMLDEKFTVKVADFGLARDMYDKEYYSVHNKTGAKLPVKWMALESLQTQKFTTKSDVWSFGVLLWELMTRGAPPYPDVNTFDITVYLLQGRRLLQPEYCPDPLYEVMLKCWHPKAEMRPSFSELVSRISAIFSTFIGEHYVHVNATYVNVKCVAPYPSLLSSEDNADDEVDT

Take “anti-c-Met antibody fragment 5D5 Fab from mAb”: in experiment [1], the % inhibition of HGF-dependent A549 cell migration is 112%; the % inhibition of HGF-dependent c-Met phosphorylation, A549 cells, experiment 1 came out at 96.4%; the % inhibition of HGF-dependent c-Met phosphorylation, A549 cells, experiment 2 was 95.9%; the % inhibition of HGF-dependent proliferation of BxPC3 cells was found to be 94.8%. In addition, in experiment [1], the IC50, HGF-dependent A549 cell migration was found to be 5.48 nM; the IC50, HGF-dependent c-Met phosphorylation, A549 cells, experiment 1 was determined as 10.4 nM; the IC50, HGF-dependent c-Met phosphorylation, A549 cells, experiment 2 turned out to be 9.09 nM; the IC50, HGF-dependent proliferation of BxPC3 cells is 34.3 nM. Further, in experiment [2], the IC50 stood at 3.2 nM. In addition, the IC50 in experiment [3] is 3.1 nM. Besides, in experiment [4], the IC50 came to 11.3 nM. Moreover, in experiment [5], the % inhibition came to 101% and the IC50 was found to be 1.3 nM.

anti-c-Met antibody 5D5 registered a concentration of maximal c-Met phosphorylation in A549 cells in experiment [1] of 37 nM. Also, the IC50 is 2.72 nM in experiment [4] and 6.7 nM in experiment [6].
